Experimental data reported in patent publication US20150266963A1 (ARGEN X B V, published 2015).
Read-outs that look alike come from different tables or passages of the source.

Tests used:
[1] = biological target: T1, human CD70 expressed on the surface of cells (human, UniProt P32970 1-193); experiment: cell-based or functional assay
T1 sequence (looked up): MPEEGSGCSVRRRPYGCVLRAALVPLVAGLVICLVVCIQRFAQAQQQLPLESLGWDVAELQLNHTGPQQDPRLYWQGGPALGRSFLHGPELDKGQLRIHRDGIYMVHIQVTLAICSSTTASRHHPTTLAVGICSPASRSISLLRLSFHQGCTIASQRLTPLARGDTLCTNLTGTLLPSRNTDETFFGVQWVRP

[2] = biological target: T1, human CD70 expressed on the surface of …; experiment: cell-based or functional assay; remark: listed apart in the source
[3] = biological target: T1, human CD70 expressed on the surface of …; experiment: cell-based or functional assay; remark: listed apart in the source
[4] = biological target: T1, human CD70 expressed on the surface of …; experiment: flow cytometry on 786-O cells; anti-human Fc-FITC
Procedure: Fluorescence of 10,000 cells/condition was measured using a flow cytometer and the median fluorescence was plotted.

[5] = biological target: T2, rhesus recombinant CD70 (FLAG-TNC-rhesus CD70) (rhesus); experiment: inhibition ELISA; FLAG-TNC-rhesus CD70; competitor CD27-Fc
T2 construct: also called rhesus Flag-TNC-CD70
From the text: In this assay, Flag-TNC-CD70 is captured by an anti-Flag mAb and binding of CD27-Fc is detected via a biotinylated anti-CD27 mAb and strep-HRP in the absence or presence of CD70 Fabs (FIGS. 2 and 3) or CD70 mAbs (FIG. 4). In FIG. 2B it can be seen that 27B3, which has an identical VH as 9D1, but contains a somewhat different light chain, seems to block binding of CD27 to CD70 more efficiently, which was in line with the better off rate of this Fab as measured on Biacore (data not shown). Table 3 indicates the blocking potency (expressed as IC50) for the various llama-human chimeric mAbs tested in the CD70 inhibition ELISA. […] FIG. 3 is a composite of an experiment testing llama CD70 Fabs for blocking activity (in the inhibition ELISA, see white bars) and for CD70 binding (binding ELISA, black bars). For the binding ELISA, Flag-TNC-CD70 is captured by an anti-Flag mAb and binding of the Fabs is detected using an anti-myc-HRP mAb, which recognizes the MYC tag fused to the C-terminus of the Fd fragment. For comparison purposes, known monoclonal antibodies to CD70 (SGN70 described in US 2010/0129362 A1, clone 1F6; and MDX69A7 described in WO2008/074004 FIGS. 5A and 5B) were tested in parallel. […] Of interest is clone 59D10, which as Fab has no blocking activity, but when converted into a chimeric IgG was antagonistic (see Table 3). […]

[6] = biological target: T3, recombinant human CD70 (Flag-TNC-CD70) (human, UniProt P32970 39-193); experiment: inhibition ELISA; Flag-TNC-CD70 captured by anti-Flag mAb; competitor CD27-Fc
T3 construct: extracellular domain; Captured by anti-Flag mAb in ELISA; as 'recombinant human CD70' immobilised on Biacore CM5 chips; TNC is for trimerisation; also called recombinant CD70; human recombinant CD70; not shown: Flag tag and TNC trimerisation domain
T3 sequence (looked up): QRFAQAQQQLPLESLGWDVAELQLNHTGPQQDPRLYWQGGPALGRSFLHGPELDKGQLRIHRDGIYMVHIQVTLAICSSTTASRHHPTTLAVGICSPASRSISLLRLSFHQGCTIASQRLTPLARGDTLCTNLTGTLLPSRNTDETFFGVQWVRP
Procedure: From selected phage transfected into TG1, individual colonies were picked randomly for growth in 96 well plates. After IPTG induction according to standard protocols periplasmic fractions (penis) containing Fabs were prepared. […] In this assay, Flag-TNC-CD70 is captured by an anti-Flag mAb and binding of CD27-Fc is detected via a biotinylated anti-CD27 mAb and strep-HRP in the absence or presence of CD70 Fabs (FIGS. 2 and 3) or CD70 mAbs (FIG. 4). In FIG. 2B it can be seen that 27B3, which has an identical VH as 9D1, but contains a somewhat different light chain, seems to block binding of CD27 to CD70 more efficiently, which was in line with the better off rate of this Fab as measured on Biacore (data not shown). Table 3 indicates the blocking potency (expressed as IC50) for the various llama-human chimeric mAbs tested in the CD70 inhibition ELISA. […] FIG. 3 is a composite of an experiment testing llama CD70 Fabs for blocking activity (in the inhibition ELISA, see white bars) and for CD70 binding (binding ELISA, black bars). For the binding ELISA, Flag-TNC-CD70 is captured by an anti-Flag mAb and binding of the Fabs is detected using an anti-myc-HRP mAb, which recognizes the MYC tag fused to the C-terminus of the Fd fragment. For comparison purposes, known monoclonal antibodies to CD70 (SGN70 described in US 2010/0129362 A1, clone 1F6; and MDX69A7 described in WO2008/074004 FIGS. 5A and 5B) were tested in parallel. […] Of interest is clone 59D10, which as Fab has no blocking activity, but when converted into a chimeric IgG was antagonistic (see Table 3). Amino acid sequences of the VH and VL domains of binding and blocking llama-derived Fab clones are shown elsewhere herein (Tables 6-9).

[7] = biological target: T3, recombinant human CD70 (Flag-TNC-CD70); experiment: as above; remark: listed apart in the source
In short: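 Flag-TNC-CD70 captured by anti-Flag mAb, then incubated with CD27-Fc with or without titrated Fabs (periplasmic extracts) or chimeric mAbs. Bound CD27-Fc detected via biotinylated anti-CD27 mAb and strep-HRP, and blocking potency expressed as IC50.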

- IC50, IL-8 secretion in Raji / HT1080-CD27 co-culture assay [1]: 0.033 nM
- IC50 (ng/ml), IL-8 secretion in Raji / HT1080-CD27 co-culture assay [2]: 5 ng/mL
- Raji co-culture assay IC50 relative to 27B3 [3]: 1 fold of 27B3
- EC50 [4]: 0.24 nM
- IC50 [5]: 0.15 µg/mL
- IC50 [6]: 0.25 nM
- IC50 [7]: 0.038 µg/mL
B1: 27B3 chimeric llama-human mAb (antibody, human IgG1, V domains shown)
VH: EVQLVESGGGLVQPGGSLRLSCAASGFTFSVYYMNWVRQAPGKGLEWVSDINNEGGTTYYADSVKGRFTISRDNAKNTLTLQMNSLKPEDTALYYCVRDAGYSNHVPIFDSWGQGTQVIVAS
VL: QAVVTQEPSLTVSPGGTVTLTCGLKSGSVTSTNFPTWYQQTPGQAPRLLIYNTNTRHSGVPSRFSGSISENKAALTITGAQPEDEAEYFCALFISNPSVEFGGGTQLTVLS
notes: also called SIMPLE antibody 27B3; mAb 27B3
